Experiment [1] deals with T1, full-length insect-expressed human-MEPE (Hu-MEPE) (human, UniProt Q9NQ76 18-525).
T1 construct: also called recombinant Hu-MEPE; Matrix Extracellular Phosphoglycoprotein
T1 sequence: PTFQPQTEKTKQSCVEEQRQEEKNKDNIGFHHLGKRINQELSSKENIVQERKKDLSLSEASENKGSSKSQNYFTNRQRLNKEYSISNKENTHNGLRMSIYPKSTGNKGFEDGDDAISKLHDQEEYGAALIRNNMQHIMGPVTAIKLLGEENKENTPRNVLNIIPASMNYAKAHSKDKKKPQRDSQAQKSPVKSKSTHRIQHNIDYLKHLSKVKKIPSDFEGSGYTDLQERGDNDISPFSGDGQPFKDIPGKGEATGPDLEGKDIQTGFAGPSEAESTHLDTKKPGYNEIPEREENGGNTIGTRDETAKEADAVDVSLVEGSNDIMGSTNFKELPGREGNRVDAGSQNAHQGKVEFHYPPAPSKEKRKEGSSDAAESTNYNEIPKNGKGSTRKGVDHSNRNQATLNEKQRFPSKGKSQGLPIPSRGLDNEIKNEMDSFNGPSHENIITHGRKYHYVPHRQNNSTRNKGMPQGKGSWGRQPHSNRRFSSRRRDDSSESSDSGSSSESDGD
Description: SPR (Biacore 3000), MEPE immobilized on CM5 at 3500 RU, secPHEX analyte, HBS-P-Zn (2 mM ZnCl2). How it is done: The experiments were performed at 25° C. using Biacore (Piscataway, N.J.) buffer (10 mM HEPES pH 7.4, 150 mM NaCl, 0.005% surfactant P20) supplemented with 2 mM ZnCl₂ (HBS-P-Zn) or without ZnCl₂ (HBS-P) as indicated. Injected samples also contained 2 mg/mL carboxymethyl-dextran to reduce non-specific association with the dextran matrix of the chip and a flow rate of 5 μL/min was used. The surfaces of research grade CM5 chips were activated by a 6 min injection of a solution containing 0.2M N-ethyl-N9-(dimethylaminopropyl) carbodiimide and 0.05M N-hydroxy-succinimide. MEPE, PHEX and IgG were immobilized on the same chip (ligands) in different individual flow-cells. Each chip contains four separate flow-cells, one cell was left blank as a negative control. The experiments were repeated on two different chips with 3500 RU (response-units) and 6000 RU of immobilized proteins respectively. The response unit or RU is a measure of surface charge density-oscillation and surface-plasmon-positron generation as detected by changes in incident refractive-index monitored by the Biacore optical unit. Specifically, 1000 RU unit equals a change of approximately 1 ng/mm² in surface protein concentration on the chip surface. After immobilization, each surface was blocked by a 6 min injection of 1 M ethanolamine at pH 8.5. […]
For orientation: In SPR one partner is held on a chip, and binding of the other changes the refractive index at the surface.

Experiment [2] deals with T2, chip-immobilized secPHEX (Homo sapiens, UniProt P78562).
T2 construct: to generate a soluble, secreted form of PHEX; made in house; gift of Crine and Boileau, University of Montreal
T2 sequence (P78562 46-749 limits assumed): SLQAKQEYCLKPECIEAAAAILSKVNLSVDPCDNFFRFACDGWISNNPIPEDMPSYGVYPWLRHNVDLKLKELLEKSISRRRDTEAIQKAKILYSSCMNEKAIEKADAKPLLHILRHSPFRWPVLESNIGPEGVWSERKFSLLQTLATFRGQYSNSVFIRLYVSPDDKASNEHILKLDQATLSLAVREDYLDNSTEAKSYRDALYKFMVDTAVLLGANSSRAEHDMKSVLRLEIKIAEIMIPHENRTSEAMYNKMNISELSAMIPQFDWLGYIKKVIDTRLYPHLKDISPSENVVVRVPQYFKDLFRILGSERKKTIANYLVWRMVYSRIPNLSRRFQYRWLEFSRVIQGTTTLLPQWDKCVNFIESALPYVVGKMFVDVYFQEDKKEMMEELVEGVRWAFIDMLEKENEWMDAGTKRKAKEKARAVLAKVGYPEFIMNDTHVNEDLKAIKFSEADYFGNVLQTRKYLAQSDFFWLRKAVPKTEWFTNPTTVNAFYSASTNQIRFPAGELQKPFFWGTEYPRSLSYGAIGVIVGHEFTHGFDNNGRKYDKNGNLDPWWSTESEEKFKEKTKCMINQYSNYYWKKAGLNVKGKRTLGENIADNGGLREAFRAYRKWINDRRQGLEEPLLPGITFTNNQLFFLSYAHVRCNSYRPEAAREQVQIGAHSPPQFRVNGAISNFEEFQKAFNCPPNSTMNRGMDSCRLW
Description: Surface plasmon resonance, secPHEX analyte on immobilized secPHEX. Format: binding. The note with it: 2 uM secPHEX. From the text:
(§1) Surface Plasmon Resonance (SPR). A Biacore 3000 SPR instrument (Biacore, Piscataway, N.J.) in conjunction with CM5 research grade chips were used to conduct the Surface Plasmon Resonance (SPR) experiments, as previously described (Morgan, et al., A conserved clathrin assembly motif essential for synaptic vesicle endocytosis, J Neurosci 20(23):8667-8676, 2000; Morgan, et al., Uncoating of clathrin-coated vesicles in presynaptic terminals: Roles for Hsc70 and auxilin, Neuron 32(2):289-300, 200 1; Morgan, et al., Eps15 homology domain-NPF motif interactions regulate clathrin coat assembly during synaptic vesicle recycling, J Biol Chem 278(35):33583-33592, 2003). The experiments were performed at 25° C. using Biacore (Piscataway, N.J.) buffer (10 mM HEPES pH 7.4, 150 mM NaCl, 0.005% surfactant P20) supplemented with 2 mM ZnCl2 (HBS-P-Zn) or without ZnCl2 (HBS-P) as indicated. Injected samples also contained 2 mg/mL carboxymethyl-dextran to reduce non-specific association with the dextran matrix of the chip and a flow rate of 5 μL/min was used. […] The response unit or RU is a measure of surface charge density-oscillation and surface-plasmon-positron generation as detected by changes in incident refractive-index monitored by the Biacore optical unit. […]

Experiment [3] has as its target T3, chip-immobilized MEPE (Homo sapiens, UniProt Q9NQ76).
T3 construct: Purified protein contained N-terminal amino acid residues APTFQ confirming cleavage of predicted nascent-MEPE signal-peptide; made in house; host or cells: Spodoptera frugiperda (sf9) insect cells, baculovirus
T3 sequence (Q9NQ76 18-525): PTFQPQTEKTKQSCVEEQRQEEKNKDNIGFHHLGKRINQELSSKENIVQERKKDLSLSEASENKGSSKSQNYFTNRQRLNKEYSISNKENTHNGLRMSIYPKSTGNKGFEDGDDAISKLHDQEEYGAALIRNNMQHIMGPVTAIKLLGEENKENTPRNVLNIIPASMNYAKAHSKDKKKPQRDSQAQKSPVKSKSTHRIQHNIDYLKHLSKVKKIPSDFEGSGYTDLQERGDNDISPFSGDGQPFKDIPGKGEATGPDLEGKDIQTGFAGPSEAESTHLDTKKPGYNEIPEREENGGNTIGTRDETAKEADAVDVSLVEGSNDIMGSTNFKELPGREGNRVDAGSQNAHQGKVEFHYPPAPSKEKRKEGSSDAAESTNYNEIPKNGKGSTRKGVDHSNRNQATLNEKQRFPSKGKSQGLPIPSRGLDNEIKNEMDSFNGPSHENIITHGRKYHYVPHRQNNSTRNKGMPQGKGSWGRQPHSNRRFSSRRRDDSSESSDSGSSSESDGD
The experiment is described as follows: Surface plasmon resonance, secPHEX analyte on chip-immobilized MEPE. The format is binding. From the text: Surface Plasmon Resonance (SPR). A Biacore 3000 SPR instrument (Biacore, Piscataway, N.J.) in conjunction with CM5 research grade chips were used to conduct the Surface Plasmon Resonance (SPR) experiments, as previously described (Morgan, et al., A conserved clathrin assembly motif essential for synaptic vesicle endocytosis, J Neurosci 20(23):8667-8676, 2000; Morgan, et al., Uncoating of clathrin-coated vesicles in presynaptic terminals: Roles for Hsc70 and auxilin, Neuron 32(2):289-300, 200 1; Morgan, et al., Eps15 homology domain-NPF motif interactions regulate clathrin coat assembly during synaptic vesicle recycling, J Biol Chem 278(35):33583-33592, 2003). The experiments were performed at 25° C. using Biacore (Piscataway, N.J.) buffer (10 mM HEPES pH 7.4, 150 mM NaCl, 0.005% surfactant P20) supplemented with 2 mM ZnCl2 (HBS-P-Zn) or without ZnCl2 (HBS-P) as indicated. Injected samples also contained 2 mg/mL carboxymethyl-dextran to reduce non-specific association with the dextran matrix of the chip and a flow rate of 5 μL/min was used. The surfaces of research grade CM5 chips were activated by a 6 min injection of a solution containing 0.2M N-ethyl-N9-(dimethylaminopropyl) carbodiimide and 0.05M N-hydroxy-succinimide. MEPE, PHEX and IgG were immobilized on the same chip (ligands) in different individual flow-cells. Each chip contains four separate flow-cells, one cell was left blank as a negative control. The experiments were repeated on two different chips with 3500 RU (response-units) and 6000 RU of immobilized proteins respectively. The response unit or RU is a measure of surface charge density-oscillation and surface-plasmon-positron generation as detected by changes in incident refractive-index monitored by the Biacore optical unit. Specifically, 1000 RU unit equals a change of approximately 1 ng/mm^2 in surface protein concentration on the chip surface. After immobilization, each surface was blocked by a 6 min injection of 1 M ethanolamine at pH 8.5. […]

Experiment [4] concerns IgG. The experiment is described as follows: Surface plasmon resonance, secPHEX analyte on immobilized IgG. Format: binding. The note with it: same chip.
From the text: as §1

Entries after “also recorded” stand apart in the source; their conditions may differ.

Broadly, the EC50 is the midpoint of the concentration-response curve.

B1: mammalian expressed human recombinant secreted PHEX (secPHEX) (enzyme, UniProt P78562 46-749, looked up)
chain: SLQAKQEYCLKPECIEAAAAILSKVNLSVDPCDNFFRFACDGWISNNPIPEDMPSYGVYPWLRHNVDLKLKELLEKSISRRRDTEAIQKAKILYSSCMNEKAIEKADAKPLLHILRHSPFRWPVLESNIGPEGVWSERKFSLLQTLATFRGQYSNSVFIRLYVSPDDKASNEHILKLDQATLSLAVREDYLDNSTEAKSYRDALYKFMVDTAVLLGANSSRAEHDMKSVLRLEIKIAEIMIPHENRTSEAMYNKMNISELSAMIPQFDWLGYIKKVIDTRLYPHLKDISPSENVVVRVPQYFKDLFRILGSERKKTIANYLVWRMVYSRIPNLSRRFQYRWLEFSRVIQGTTTLLPQWDKCVNFIESALPYVVGKMFVDVYFQEDKKEMMEELVEGVRWAFIDMLEKENEWMDAGTKRKAKEKARAVLAKVGYPEFIMNDTHVNEDLKAIKFSEADYFGNVLQTRKYLAQSDFFWLRKAVPKTEWFTNPTTVNAFYSASTNQIRFPAGELQKPFFWGTEYPRSLSYGAIGVIVGHEFTHGFDNNGRKYDKNGNLDPWWSTESEEKFKEKTKCMINQYSNYYWKKAGLNVKGKRTLGENIADNGGLREAFRAYRKWINDRRQGLEEPLLPGITFTNNQLFFLSYAHVRCNSYRPEAAREQVQIGAHSPPQFRVNGAISNFEEFQKAFNCPPNSTMNRGMDSCRLW
notes: Gift from Crine and Boileau; Used as SPR analyte and also immobilized as ligand; also called soluble mammalian expressed PHEX
Take B1: the concentration for a half-maximal effect (EC50) in experiment [1] is 553 nM. Besides, the “interaction of secPHEX analyte with chip-immobilized secPHEX” value in experiment [2] is “very low-level barely-detectable autologous-interaction”. For the same molecule, the “binding of secPHEX to MEPE in buffer lacking ZnCl2” value in experiment [3] (HBS-P, secPHEX up to 10 uM) was “No interaction”. Moreover, in experiment [3] (HBS-P-Zn buffer, saturation at 10 uM secPHEX), the “binding of secPHEX to MEPE” value is listed as “dose dependent”. Also, the “Bmax of secPHEX binding to immobilized MEPE” value in experiment [3] (MEPE 3500 RU) is reported as 680 RU. In addition, the “interaction of secPHEX with control IgG” value in experiment [4] is recorded as “no significant signals; also recorded: No interaction”.

(Values after patent US20070099822A1, “Regulation of tissue mineralization and phosphate metabolism by asarm peptides” (priority 2003, published 2007).)
